# Laboratory results reported in patent US20250264433A1.
# Target: peptide #49+50 (combined sequences of EspB peptides #49 and #50) (Enteropathogenic Escherichia coli (EPEC))
# Test: ELISA, plate coated with peptide #49+50, serially diluted mAb, anti-human IgG-HRP
binder,measurement,value
"mAb-EspB-B7 (antibody, V domains shown) VH: EVQLLESGGGLVQPGGSLRLSCAASGFTFSHYAMNWVRQAPGKGLEWVSAINSNGDSTYYPDTVKDRFTISRDNSKNTLYLQMNSLRAEDTAVYYCARDRRAGYFDYWGQGTLVTVSS VL: DIVLTQPPSASGTPGQRVTISCSGSRDNIGKNYVSWYQQLPGTAPKLLIYRNNQRPSGVPDRFSGSKSGTSASLAISGLRSEDEADYYCSAWDTSLNAYVFGPGTQLTVL",EC50 (read off the curve),0.4 mg/L
